Experimental data as given in publication doi:10.1101/2025.09.08.674988.
Read-outs that look alike come from different tables or passages of the source.

B1: Synthetic RNA (structured_RNA)
RNA: AGGGUUUUUUUUUUUAUUAUUUAUUCUUUAUUUUUCUUGCGUAGUUUUCUACG
B2: 5'UTR RNA (ssRNA)
RNA: AUACUAACGCCAUGGCUAGGCGCUUUCUGCGUGAAGACAGUAGUUCCUCACAGGGGAGUGAUUCAUGGCGGAGUGUCGCCCCU

Key:
[1] = biological target: T1, NS5B(Δ21)-FlAsH-His (RNA-dependent RNA polymerase) (Hepatitis C virus genotype 2a, UniProt Q99IB8 2443-3012); assay: EMSA
[2] = biological target: T1, NS5B(Δ21)-FlAsH-His (RNA-dependent RNA …); assay: EMSA; remark: listed apart in the source

| Binder | binding result [1] | binding result [2] |
| --- | --- | --- |
| B1 | binds |  |
| B2 |  | binds |
